B1: TAF7L (parent)
chain: PDVENEVKRLLRSDAEAVSTRWEV
B2: C22orf15 (parent)
chain: RGRHEQSPTSRPRKVSSLPPRSC

Variants of: B1
Assay: protein stability index of a GFP-peptide fusion (GPS, HEK-293T) (PSI 1-6); higher = more stable
Settings: c terminus: a fixed tail appended
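Further: lentivirally expressed fusions sorted by FACS into six bins by GFP to DsRed ratio, PSI derived from sequencing read proportions per bin multiplied by bin number.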

Variant	protein stability index
N5Y	3.1
N5L	2.82
N5A	3.79
N5K	3.21
N5W	2.95
N5Q	3.07
N5S	2.03
N5P	3.57
N5F	2.62
N5M	2.81
V7S	3.56
V7G	4.2
V7N	2.94
V7T	4.13
V7I	2.73
V7W	3.13
V7K	4.23
V7Y	3.31
V7Q	3.68
V7M	3.47
V7H	4.06
V7P	4.57
V7C	3.07

Variant	protein stability index
V3N	3.09
V3D	4.13
V3G	3.05
V3P	4.43
V3C	3.75
V3Q	3.79
V3M	3.5
V3E	4.74
V3S	3.13
V3H	3.86
V3F	3.32
V3K	4.4
V3T	3.99
E6C	2.9
E6P	4.02
E6R	3.65
E6K	3.17
E6H	2.9
E6M	2.05
E6G	3.25
E6N	3.12
E6S	3.21
E4A	4.39

Variant	protein stability index
E4C	2.38
E4D	2.19
E4N	3.05
E4M	1.69
E4G	2.92
E4Q	3.21
E4K	3.35
E4W	1.93
E4F	1
E4T	3.17
E4P	3.86
E4V	2.76
E4Y	3.14
R9F	2.69
R9P	4.17
R9Q	3.83
R9H	4.05
R9T	3.44
R9L	3.29
R9Y	2.41
R9N	3.66
R9M	3.96
R9K	4.02

Variant	protein stability index
R9D	4.41
R9G	3.57
R9C	3.39
K8N	3.08
K8C	3.23
K8E	3.6
K8I	2.51
K8Q	3.34
K8M	2.78
K8H	4.25
K8P	4.16
K8Y	2.23
K8F	2.2
K8W	2.19
K8V	3.44
L10F	3.42
L10H	3.82
D2T	2.59
D2M	3.13
D2H	2.69
D2F	3.15
D2C	2.9
D2K	3.71

Variant	protein stability index
D2V	3.2
D2P	3.58
D2L	2.56
D2A	3.91
D2I	1.94
D2Q	2.62
D2Y	2.81
P1I	2.79
P1T	3.29
P1A	2.92
P1L	3.52
P1R	2.36
P1D	2.96
P1E	4.44
P1N	3.43
P1Y	3
P1S	4.05
P1H	2.27
P1K	3.27

Variants of: B2
Assay: as above
Settings: c terminus: native

Variant	protein stability index
P8G	2.55
P8Q	2.65
R21V	2.88
R21Q	4.51
R21T	4.25
R21D	5.37
R21I	2.83
R21F	4.25
S7N	2.44
P19S	3.79
P19T	4.33
P19A	4.11
P19R	2.13
E5Y	4.38
E5R	2.19
R3V	2.05
R3C	3.01
T9K	2.44
S10K	1.93

Variant	protein stability index
S10F	1.99
S10T	2.83
V15F	3.96
V15R	2.8
V15C	2.52
P20A	3
L18D	1.5
L18Y	2.29
L18H	3.38
L18C	2.88
S17E	3.27
S17R	3.79
S17Q	2.34
S17K	1.93
S17P	3.73
R11P	3.98
R11G	2.87
P12H	2.55
P12Q	3.88

Variant	protein stability index
S16A	1.95
S16D	2.87
S16W	1.81
S16I	1.98
S22P	3.03
C23T	2.97
Q6I	4.15
Q6L	2.54
R13Y	1.49
R13F	2.43
G2H	1.16
G2Y	3.84
G2Q	2.2
G2I	2.64
K14N	1.24
K14Q	4.04
R1M	3.56
R1A	3.06

Reference: the supplement of paper PMC10567573
